Test results reported in patent US9266930.

Key:
[1] = target: HLA-DR1 (DRB1*0101) (human)
[2] = target: HLA-DR2w2β2 (DRB5*0101) (human)
[3] = target: HLA-DR4w15 (DRB1*0405) (human)
[4] = target: HLA-DR5w11 (DRB1*1101) (human)
[5] = target: HLA-A*1101 (purified HLA class I molecule) (human); experiment: competition with a 125I-labelled probe peptide for purified HLA-A*1101
[6] = target: T1, HLA-DR8w2 (DRB1*0802) (human)
T1 chain 1: not shown
T1 chain 2: not shown

[7] = target: T2, HLA-DR5w12 (DRB1*1201) (human)
T2 chain 1: not shown
T2 chain 2: not shown

[8] = target: T3, HLA-DR7 (DRB1*0701) (human)
T3 chain 1: not shown
T3 chain 2: not shown

[9] = target: T4, HLA-DRw53 (DRB4*0101) (human)
T4 chain 1: not shown
T4 chain 2: not shown

[10] = target: HLA-DR4w4 (DRB1*0401) (human)
HLA-A*1101 (human) [11] = experiment: competition with 125I-labelled standard peptide for purified HLA, gel filtration
HLA-A*1101 (Human) [12] = target: HLA-A*1101 (Human)
[13] = target: HLA-DR3 (DRB1*0301) (human)

B1: … (peptide)
peptide: TVLLGGVGLVLYNTE
modifications: not checked
For B1, the binding affinity ratio (IC50 of standard peptide / IC50 of test peptide) [1] was 0.49, the binding affinity ratio (IC50 of standard peptide / IC50 of test peptide) [2] was -0.0005 and the binding affinity ratio (IC50 of standard peptide / IC50 of test peptide) [3] was -0.0009. It also gave a binding affinity ratio (IC50 of standard peptide / IC50 of test peptide) [4] of -0.0002.

B2: … (P. falciparum EXP, position 27) (peptide)
peptide: KGTGSGVSSK
modifications: not checked
In the case of B2, the binding affinity ratio (IC50 of standard peptide / IC50 of test peptide) (HLA-A*0301 (human)) is reported as 0.0005.

B3: … (Pf SSP2 120, 9-mer) (peptide)
peptide: SLLSTNLPY
modifications: not checked
For B3, the binding affinity ratio (IC50 of standard peptide / IC50 of test peptide) [5] was 0.0046.

B4: … (Pf SSP2 521, 9-mer) (peptide)
peptide: VVPGAATPY
modifications: not checked
B4 gave a binding affinity ratio (IC50 of standard peptide / IC50 of test peptide) [5] of 0.0002.

B5: … (Pf SSP2 513) (peptide)
peptide: AGGIAGGLALLACAG
modifications: not checked
With B5 the binding affinity ratio (IC50 of standard peptide / IC50 of test peptide) [6] was 0.0004, the binding affinity ratio (IC50 of standard peptide / IC50 of test peptide) [7] was 0.0007 and the binding affinity ratio (IC50 of standard peptide / IC50 of test peptide) [8] was -0.0003. For the same binder, the binding affinity ratio (IC50 of standard peptide / IC50 of test peptide) [9] was -0.0005.

B6: … (Pf SSP2 517) (peptide)
peptide: AGGLALLACAGLAYK
modifications: not checked
B6 gave a binding affinity ratio (IC50 of standard peptide / IC50 of test peptide) [6] of 0.0003, a binding affinity ratio (IC50 of standard peptide / IC50 of test peptide) [7] of 0.0051 and a binding affinity ratio (IC50 of standard peptide / IC50 of test peptide) [8] of 0.0009. The binding affinity ratio (IC50 of standard peptide / IC50 of test peptide) [9] was -0.0005.

B7: … (peptide)
peptide: AGGLALLACAGLAYK
modifications: not checked
In the case of B7, the binding affinity ratio (IC50 of standard peptide / IC50 of test peptide) [10] is reported as -0.0007 and the binding affinity ratio (IC50 of standard peptide / IC50 of test peptide) [4] is reported as -0.0002.

B8: … (peptide)
peptide: VVILTDGIPDSIQDS
modifications: not checked
B8 showed a binding affinity ratio (IC50 of standard peptide / IC50 of test peptide) [1] of 0.0001, a binding affinity ratio (IC50 of standard peptide / IC50 of test peptide) [2] of -0.0006 and a binding affinity ratio (IC50 of standard peptide / IC50 of test peptide) [4] of -0.0004.

B9: … (peptide)
peptide: AVPLAMKLIQQLNLN
modifications: not checked
Binder B9 has a binding affinity ratio (IC50 of standard peptide / IC50 of test peptide) [2] of -0.0006 and a binding affinity ratio (IC50 of standard peptide / IC50 of test peptide) [4] of 0.0002.

B10: … (peptide)
peptide: SVTCGKGTR
modifications: not checked
In the case of B10, the binding affinity ratio (IC50 of standard peptide / IC50 of test peptide) (HLA-A*1101 (human) [11]) is reported as 0.0009.

B11: … (CSP 31) (peptide)
peptide: NTRVLNELNY
modifications: not checked
Work on B11 yielded a binding affinity ratio (IC50 of standard peptide / IC50 of test peptide) (HLA-A*1101 (Human) [12]) of 0.0002.

B12: … (peptide)
peptide: AGGIAGGLALLACAG
modifications: not checked
B12 was tested, and the binding affinity ratio (IC50 of standard peptide / IC50 of test peptide) [4] was -0.0002.

B13: … (P. falciparum EXP, position 51) (peptide)
peptide: HDLISDMIK
modifications: not checked
With B13 the binding affinity ratio (IC50 of standard peptide / IC50 of test peptide) (HLA-A*0301 (human)) was 0.0001.

B14: … (peptide)
peptide: LIDVHDLISDMIKKE
modifications: not checked
B14 was tested, and the binding affinity ratio (IC50 of standard peptide / IC50 of test peptide) [3] was 0.0076 and the binding affinity ratio (IC50 of standard peptide / IC50 of test peptide) [13] was 0.01.

B15: … (Pf SSP2 215, 10-mer) (peptide)
peptide: YADSAWENVK
modifications: not checked
B15 gave a binding affinity ratio (IC50 of standard peptide / IC50 of test peptide) [5] of 0.0002.

B16: … (Pf SSP2 436, 10-mer) (peptide)
peptide: QSQDNNGNRH
modifications: not checked
B16 was tested, and the binding affinity ratio (IC50 of standard peptide / IC50 of test peptide) [5] was 0.0002.

B17: … (P. falciparum EXP, position 66) (peptide)
peptide: EVNKRKSKY
modifications: not checked
For B17, the binding affinity ratio (IC50 of standard peptide / IC50 of test peptide) (HLA-A*1101 (Human) [12]) was 0.0002.

B18: … (peptide)
peptide: KYLVIVFLIFFDLFL
modifications: not checked
B18 was tested, and the binding affinity ratio (IC50 of standard peptide / IC50 of test peptide) [2] was -0.002, the binding affinity ratio (IC50 of standard peptide / IC50 of test peptide) [3] was -0.003 and the binding affinity ratio (IC50 of standard peptide / IC50 of test peptide) [4] was -0.0009.

B19: … (Pf SSP2 7) (peptide)
peptide: VKYLVIVFLIFFDLF
modifications: not checked
In the case of B19, the binding affinity ratio (IC50 of standard peptide / IC50 of test peptide) [8] is reported as 0.001.

B20: … (Pf SSP2 167, 10-mer) (peptide)
peptide: SIQDSLKESR
modifications: not checked
In the case of B20, the binding affinity ratio (IC50 of standard peptide / IC50 of test peptide) [5] is reported as 0.0009.

B21: … (Pf SSP2 68) (peptide)
peptide: AVPLAMKLIQQLNLN
modifications: not checked
B21 gave a binding affinity ratio (IC50 of standard peptide / IC50 of test peptide) [6] of 0.04, a binding affinity ratio (IC50 of standard peptide / IC50 of test peptide) [7] of 0.13 and a binding affinity ratio (IC50 of standard peptide / IC50 of test peptide) [8] of 0.077. It also gave a binding affinity ratio (IC50 of standard peptide / IC50 of test peptide) [9] of 0.035.

B22: … (Pf SSP2 262, 9-mer) (peptide)
peptide: RSRKREILH
modifications: not checked
In the case of B22, the binding affinity ratio (IC50 of standard peptide / IC50 of test peptide) [5] is reported as 0.0002.

B23: … (Pf SSP2 139, 9-mer) (peptide)
peptide: QVRKHLNDR
modifications: not checked
Work on B23 yielded a binding affinity ratio (IC50 of standard peptide / IC50 of test peptide) [5] of 0.0002.

B24: … (Pf CSP 96, A11 motif peptide) (peptide)
peptide: DGNNEDNEK
modifications: not checked
With B24 the binding affinity ratio (IC50 of standard peptide / IC50 of test peptide) (HLA-A*1101 (Human) [12]) was 0.0002.

B25: … (peptide)
peptide: WSPCSVTCGK
modifications: not checked
Binder B25 has a binding affinity ratio (IC50 of standard peptide / IC50 of test peptide) (HLA-A*1101 (human) [11]) of 0.0002.

B26: … (peptide)
peptide: ILSVFFLALFFIIFN
modifications: not checked
Binder B26 has a binding affinity ratio (IC50 of standard peptide / IC50 of test peptide) [2] of 0.0091, a binding affinity ratio (IC50 of standard peptide / IC50 of test peptide) [3] of -0.0009 and a binding affinity ratio (IC50 of standard peptide / IC50 of test peptide) [13] of -0.0008.

B27: … (Pf SSP2 15) (peptide)
peptide: LIFFDLFLVNGRDVQ
modifications: not checked
In the case of B27, the binding affinity ratio (IC50 of standard peptide / IC50 of test peptide) [8] is reported as 0.047.

B28: … (peptide)
peptide: MKILSVFFLALFFII
modifications: not checked
With B28 the binding affinity ratio (IC50 of standard peptide / IC50 of test peptide) [2] was -0.0021 and the binding affinity ratio (IC50 of standard peptide / IC50 of test peptide) [4] was -0.001.

B29: … (Pf SSP2 250, 10-mer) (peptide)
peptide: WSPCSVTCGK
modifications: not checked
B29 showed a binding affinity ratio (IC50 of standard peptide / IC50 of test peptide) [5] of 0.0002.

B30: … (Pf SSP2 235) (peptide)
peptide: CVEVEKTASCGVWDE
modifications: not checked
Work on B30 yielded a binding affinity ratio (IC50 of standard peptide / IC50 of test peptide) [6] of 0.0005, a binding affinity ratio (IC50 of standard peptide / IC50 of test peptide) [7] of 0.0001 and a binding affinity ratio (IC50 of standard peptide / IC50 of test peptide) [8] of 0.0095.

B31: … (P. falciparum CSP, position 95) (peptide)
peptide: RDGNNEDNEK
modifications: not checked
For B31, the binding affinity ratio (IC50 of standard peptide / IC50 of test peptide) (HLA-A*1101 (Human) [12]) was 0.0002.

B32: … (peptide)
peptide: LGNVKYLVIVFLIFF
modifications: not checked
B32 gave a binding affinity ratio (IC50 of standard peptide / IC50 of test peptide) [1] of 0.0006 and a binding affinity ratio (IC50 of standard peptide / IC50 of test peptide) [13] of -0.0008.

B33: … (peptide)
peptide: SIQDSLKESR
modifications: not checked
Work on B33 yielded a binding affinity ratio (IC50 of standard peptide / IC50 of test peptide) (HLA-A*1101 (human) [11]) of 0.0009.

B34: … (P. falciparum EXP, position 51) (peptide)
peptide: HDLISDMIKK
modifications: not checked
For B34, the binding affinity ratio (IC50 of standard peptide / IC50 of test peptide) (HLA-A*0301 (human)) was 0.0009.

B35: … (Pf SSP2 203, 9-mer) (peptide)
peptide: VGCHPSDGK
modifications: not checked
B35 was tested, and the binding affinity ratio (IC50 of standard peptide / IC50 of test peptide) [5] was 0.0003.

B36: NDIEKKIK (CSP 401) (peptide)
peptide: NDIEKKICK
modifications: not checked
B36 was tested, and the binding affinity ratio (IC50 of standard peptide / IC50 of test peptide) (HLA-A*1101 (Human) [12]) was 0.0002.

B37: … (Pf SSP2 157) (peptide)
peptide: VVILTDGIPDSIQDS
modifications: not checked
B37 was tested, and the binding affinity ratio (IC50 of standard peptide / IC50 of test peptide) [6] was -0.0003, the binding affinity ratio (IC50 of standard peptide / IC50 of test peptide) [7] was 0.0001 and the binding affinity ratio (IC50 of standard peptide / IC50 of test peptide) [8] was -0.0003. For the same binder, the binding affinity ratio (IC50 of standard peptide / IC50 of test peptide) [9] was 0.0114.

B38: … (P. falciparum EXP, position 32) (peptide)
peptide: GVSSKKKNK
modifications: not checked
For B38, the binding affinity ratio (IC50 of standard peptide / IC50 of test peptide) (HLA-A*0301 (human)) was 0.0001.

B39: … (peptide)
peptide: VKYLVIVFLIFFDLF
modifications: not checked
Work on B39 yielded a binding affinity ratio (IC50 of standard peptide / IC50 of test peptide) [1] of 0.0001 and a binding affinity ratio (IC50 of standard peptide / IC50 of test peptide) [10] of 0.003.

B40: … (Pf SSP2 58, 10-mer) (peptide)
peptide: SIRRHNWVNH
modifications: not checked
B40 was tested, and the binding affinity ratio (IC50 of standard peptide / IC50 of test peptide) [5] was 0.0002.

B41: … (Pf CSP 377, A11 motif peptide) (peptide)
peptide: CGNGIQVRIK
modifications: not checked
With B41 the binding affinity ratio (IC50 of standard peptide / IC50 of test peptide) (HLA-A*1101 (Human) [12]) was 0.0002.

B42: … (peptide)
peptide: CGVWDEWSPCSVTCG
modifications: not checked
B42 gave a binding affinity ratio (IC50 of standard peptide / IC50 of test peptide) [1] of 0.0001, a binding affinity ratio (IC50 of standard peptide / IC50 of test peptide) [2] of -0.0006 and a binding affinity ratio (IC50 of standard peptide / IC50 of test peptide) [10] of -0.0007. It also gave a binding affinity ratio (IC50 of standard peptide / IC50 of test peptide) [4] of -0.0002.

B43: … (P. falciparum EXP, position 32) (peptide)
peptide: GVSSKKKNKK
modifications: not checked
Binder B43 has a binding affinity ratio (IC50 of standard peptide / IC50 of test peptide) (HLA-A*0301 (human)) of 0.0011.

B44: … (P. falciparum EXP, position 15) (peptide)
peptide: IFNKESLAEK
modifications: not checked
B44 was tested, and the binding affinity ratio (IC50 of standard peptide / IC50 of test peptide) (HLA-A*0301 (human)) was 0.0005.
